Experiment [1] concerns the target T1, human STEAP-1 (human, UniProt Q9UHE8 1-339).
T1 construct: also called Six Transmembrane Epithelial Antigen of the Prostate
Kind of experiment: Scatchard analysis; the sentence names no reference (the preceding sentences compare with chimeric 120 IgG). An excerpt: (§1) IgG Production and Affinity Determination -IgG was purified with Protein G affinity chromatography.
Although the 120-graft IgG bound specifically to the STEAP-1 expressing cells, the FACS signal observed for the 120-graft IgG was smaller than that observed for the chimeric 120 IgG indicating a loss in binding affinity. Phage displaying the 120-graft Fab also generated a FACS signal that was only observed on STEAP-1 expressing cells. This shift was less than that observed for the chimeric 120 IgG.

Experiment [2] concerns the target T1, human STEAP-1. Description: Scatchard analysis on 293 STEAP-1 NT LB50 cells.
The target of experiment [3] is T1, human STEAP-1. Kind of experiment: Scatchard analysis on 293.LB50 cells (exogenous STEAP-1), Assay 735; displacement plot 26E and Scatchard plot 26F. An excerpt:
(§2) JgG was purified with Protein G affinity chromatography.

The target of experiment [4] is T1, human STEAP-1. Description: Scatchard analysis on LNCaP.BR cells (endogenous STEAP-1), Assay 734; displacement plot 25G and Scatchard plot 25H.
Description: as §2

The target of experiment [5] is T1, human STEAP-1. Description: Scatchard analysis on LNCaP.BR cells (endogenous STEAP-1), Assay 733; displacement plot 25E and Scatchard plot 25F.
Description: as §2

Experiment [6] deals with T1, human STEAP-1. Kind of experiment: Scatchard analysis on 293-LB50 cells (exogenous STEAP-1), average.
Description: as §2

Experiment [7] addresses T1, human STEAP-1. Description: Scatchard analysis on 293.LB50 cells (exogenous STEAP-1), Assay 736; displacement plot 26G and Scatchard plot 26H.
Description: as §2

The target in experiment [8] is T1, human STEAP-1. Description: Scatchard analysis on LNCaP-BR cells (endogenous STEAP-1), average.
Description: as §2

Experiment [9] deals with T1, human STEAP-1. Kind of experiment: Scatchard analysis on 293.LB50 cells (exogenous STEAP-1), Assay 738; displacement plot 26C and Scatchard plot 26D.
Description: as §2

The target of experiment [10] is T1, human STEAP-1. Kind of experiment: Scatchard analysis on 293 cells transiently expressing human Steap1.
Description: as §2

For experiment [11], the target named is T2, cynomolgus monkey STEAP-1 (cynomolgus monkey, UniProt Q9UHE8 1-339 (human entry)).
T2 construct: The cells carrying cyno STEAP-1 are not described; also called cyno STEAP-1
T2 sequence (Q9UHE8 other isoform, or with tags, fused parts or gaps): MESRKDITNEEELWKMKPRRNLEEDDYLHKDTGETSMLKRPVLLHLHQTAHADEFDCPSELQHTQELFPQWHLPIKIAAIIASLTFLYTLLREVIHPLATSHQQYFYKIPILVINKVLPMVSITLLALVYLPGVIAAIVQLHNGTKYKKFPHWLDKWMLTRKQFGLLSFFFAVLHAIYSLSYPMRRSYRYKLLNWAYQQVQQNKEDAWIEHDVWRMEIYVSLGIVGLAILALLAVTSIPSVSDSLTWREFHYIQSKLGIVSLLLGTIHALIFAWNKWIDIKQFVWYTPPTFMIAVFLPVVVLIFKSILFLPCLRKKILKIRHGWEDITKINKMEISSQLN
Description: Scatchard analysis on 293 cells transiently expressing cyno Steap1; side note: Same Affinity for human & cyno.

The target in experiment [12] is T1, human STEAP-1. Kind of experiment: Scatchard analysis on 293.LB50 cells (exogenous STEAP-1), Assay 737; displacement plot 26A and Scatchard plot 26B.
Description: as §2

Experiment [13] deals with T1, human STEAP-1. Kind of experiment: Scatchard analysis on LNCaP.BR cells (endogenous STEAP-1), Assay 739; displacement plot 25A and Scatchard plot 25B.
Description: as §2

Experiment [14] concerns the target T1, human STEAP-1. Description: Scatchard analysis on LNCaP.BR cells (endogenous STEAP-1), Assay 740; displacement plot 25C and Scatchard plot 25D.
Description: as §2

The target in experiment [15] is T2, cynomolgus monkey STEAP-1. Description: FACS on cells expressing cynomolgus STEAP-1 (panel title CYNO, cell line not named), PE detection.
The target in experiment [16] is T1, human STEAP-1. Description: Scatchard analysis on 293.LB50 cells (exogenous STEAP-1).
Description: as §1
When expressed as an IgG, 120.v24 produced a similar FACS shift to the chimeric 120 antibody at all concentrations tested.

Experiment [17] deals with T3, mouse STEAP-1 (mouse, UniProt Q9CWR7 1-339).
T3 construct: The cells carrying mouse STEAP-1 are not described in the text; also called STEAP-1 from mouse
T3 sequence (Q9CWR7 other isoform, or with tags, fused parts or gaps): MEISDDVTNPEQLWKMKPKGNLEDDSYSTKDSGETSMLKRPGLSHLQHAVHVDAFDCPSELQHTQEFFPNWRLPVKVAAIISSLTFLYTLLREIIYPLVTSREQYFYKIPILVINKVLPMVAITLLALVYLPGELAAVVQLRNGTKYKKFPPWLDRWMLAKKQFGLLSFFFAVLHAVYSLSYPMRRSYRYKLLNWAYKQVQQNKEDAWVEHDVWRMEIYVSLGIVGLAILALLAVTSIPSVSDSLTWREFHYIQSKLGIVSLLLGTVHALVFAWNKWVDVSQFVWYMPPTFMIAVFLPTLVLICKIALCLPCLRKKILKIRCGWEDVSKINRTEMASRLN
Kind of experiment: FACS on cells expressing mouse STEAP-1 (panel title MOUSE, cell line not named), PE detection; key in Figure 7A: hu 24-67.

Experiment [18] deals with T1, human STEAP-1. Kind of experiment: Scatchard analysis on 293-LB50 and LNCaP.BR cells.
Description: as §2

Experiment [19] deals with T1, human STEAP-1. Kind of experiment: Scatchard analysis on PC3-PS5.4 cells (exogenous STEAP-1).
In experiment [20] the target is T3, mouse STEAP-1. Kind of experiment: FACS on cells expressing mouse STEAP-1 (panel title MOUSE, cell line not named), PE detection; key in Figure 7A: 120.
Experiment [21] deals with T1, human STEAP-1. Kind of experiment: Scatchard analysis on LNCaP-BR cells (endogenous STEAP-1).
The target in experiment [22] is T3, mouse STEAP-1. Kind of experiment: FACS on cells expressing mouse STEAP-1 (panel title MOUSE, cell line not named), PE detection; key in Figure 7A: 120 chi.

As usually defined, the Kd is the free concentration of one partner at which half of the binding sites on the other are occupied at equilibrium, for simple one-to-one binding.

T1 sequence (Q9UHE8 other isoform, or with tags, fused parts or gaps): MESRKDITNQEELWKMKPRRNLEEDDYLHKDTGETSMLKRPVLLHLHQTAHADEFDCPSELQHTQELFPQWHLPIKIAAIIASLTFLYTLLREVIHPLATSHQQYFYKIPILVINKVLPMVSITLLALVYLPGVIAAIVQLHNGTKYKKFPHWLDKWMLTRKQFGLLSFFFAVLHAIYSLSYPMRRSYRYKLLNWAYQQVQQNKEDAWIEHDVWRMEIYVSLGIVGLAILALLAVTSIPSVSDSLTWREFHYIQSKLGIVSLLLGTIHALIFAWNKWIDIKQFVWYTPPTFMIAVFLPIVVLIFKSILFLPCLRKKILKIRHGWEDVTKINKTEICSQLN

B1: 120 graft IgG (antibody, V domains shown)
VH: EVQLVESGGGLVQPGGSLRLSCAASGYSITSDYAWNWVRQAPGKGLEWVGYISNSGSTSYNPSLKSRFTISRDNSKNTLYLQMNSLRAEDTAVYYCARERNYDYDDYYYAMDYWGQGTLVTVSS
VL: DIQMTQSPSSLSASVGDRVTITCKSSQSLLYRSNQKNYLAWYQQKPGKAPKLLIYWASTRESGVPSRFSGSGSGTDFTLTISSLQPEDFATYYCQQYYNYPRTFGQGTKVEIKR
notes: Direct CDR graft of murine 120 onto the human kappa I / VH subgroup III consensus, expressed as IgG; also called graft 120
Turning to B1, the “fold loss in binding affinity” value with human STEAP-1 [1] was about 50 fold. This molecule also showed a Kd with human STEAP-1 [2] of 260 nM.

B2: anti-STEAP-1 antibody SGIV (antibody, name in Kabat numbering, V domains shown)
VH: EVQLVESGGGLVQPGGSLRLSCAVSGYSITSDYAWNWVRQAPGKGLEWVGYISNSGSTSYNPSLKSRFTISRDNSKNTLYLQMNSLRAEDTAVYYCARERNYDYDDYYYAMDYWGQGTLVTVSS
VL: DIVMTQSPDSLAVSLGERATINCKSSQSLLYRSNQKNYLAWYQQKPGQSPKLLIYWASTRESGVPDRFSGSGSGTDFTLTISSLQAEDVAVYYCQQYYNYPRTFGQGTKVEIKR
notes: Described as a revised light chain variant of the 120.v24 antibody, expressed as IgG; also called Simmons IV; SGIV variant
For the molecule B2, the Kd in the experiment with human STEAP-1 [3] worked out at 2.7 nM; with human STEAP-1 [4], 1.9 nM; with human STEAP-1 [5], 2.3 nM; in the experiment with human STEAP-1 [6], 2.8 nM; with human STEAP-1 [7] it was 2.8 nM; with human STEAP-1 [8], 2.1 nM.

B3: Original Thio 120V24 (antibody, V domains shown)
VH: EVQLVESGGGLVQPGGSLRLSCAVSGYSITSDYAWNWVRQAPGKGLEWVGYISNSGSTSYNPSLKSRFTISRDNSKNTLYLQMNSLRAEDTAVYYCARERNYDYDDYYYAMDYWGQGTLVTVSS
VL: DIQMTQSPSSLSASVGDRVTITCKSSQSLLYRSNQKNYLAWYQQKPGKAPKLLIYWASTRESGVPSRFSGSGSGTDFTLTISSLQPEDFATYYCQQYYNYPRTFGQGTKVEIK
modifications: One engineered free cysteine per chain pair, taken to lie in a constant region and so not in these letters. paragraph 175 calls the antibody a thio-LC variant (V205C Kabat). The site for lot PUR 12813 is not stated at the results.
notes: also called orig thio (PUR 12813); Thio Mab
For the molecule B3, the Kd stood at 2 nM in the experiment with human STEAP-1 [9]; 1.4 nM with human STEAP-1 [10]; 1.1 nM in [11]; 1.7 nM with human STEAP-1 [12]; 1.9 nM with human STEAP-1 [6]; 1.4 nM in the experiment with human STEAP-1 [8]. For the same molecule, the Kd came to 1.1 nM with human STEAP-1 [13] and 1.7 nM in the experiment with human STEAP-1 [14].

B4: 120v.78 (antibody, name in Kabat numbering, V domains shown)
VH: EVQLVESGGGLVQPGGSLRLSCAASGYSITSDYAWNWVRQAPGKGLEWVGYISNSGSTSYNPSLKSRFTISRDNSKNTFYLQMNSLRAEDTAVYYCARERNYDYDDYYYAMDYWGQGTLVTVSS
VL: DIQMTQSPSSLSASVGDRVTITCKSSQSLLYRSNQKNYLAWYQQKPGKAPKLLIYWASTRESGVPSRFSGSGSGTDFTLTISSLQPEDFATYYCQQYYNYPRTFGQGTKVEIKR
In turn, B4 displayed a Kd with human STEAP-1 [2] of 36 nM.

B5: humanized anti-STEAP-1 120v.24 (IgG) (antibody, name in Kabat numbering, V domains shown)
VH: EVQLVESGGGLVQPGGSLRLSCAVSGYSITSDYAWNWVRQAPGKGLEWVGYISNSGSTSYNPSLKSRFTISRDNSKNTLYLQMNSLRAEDTAVYYCARERNYDYDDYYYAMDYWGQGTLVTVSS
VL: DIQMTQSPSSLSASVGDRVTITCKSSQSLLYRSNQKNYLAWYQQKPGKAPKLLIYWASTRESGVPSRFSGSGSGTDFTLTISSLQPEDFATYYCQQYYNYPRTFGQGTKVEIKR
notes: also called humanized 120.v24; humanized version 24
Regarding B5, the binding result in [15] is listed as “binds”. In the experiment with human STEAP-1 [16], this molecule came in with a Kd of 2.2 nM and a sites per cell of 264000 sites per cell. The binding result with mouse STEAP-1 [17] is recorded as “no binding”. Further, the “fold binding affinity relative to the SGIV variant” value with human STEAP-1 [18] was about 1.5 fold. Besides, in the experiment with human STEAP-1 [2], the “fold improvement in Kd over the 120 chimera and the original murine M2-120.545” value worked out at 2 fold.

B6: murine anti-STEAP-1 MAb 120.545 (antibody, V domains shown)
VH: DVQVQESGPGLVKPSQSLSLTCTVTGYSITSDYAWNWIRQFPGNKLEWMGYISNSGSTSYNPSLKSRISITRDTSKNQFFLQLISVTTEDTATYYCARERNYDYDDYYYAMDYWGQGTTLTVSA
VL: DIVMSQSPSSLAVSVGEKVTMSCKSSQSLLYRSNQKNYLAWYQQKPGQSPKLLIYWASTRESGVPDRFTGSGSGTDFTLTISSVKAEDLAVYYCQQYYNYPRTFGGGTKVEIK
notes: also called murine 120
Consider B6, for which the Kd with human STEAP-1 [19] came to 17.5 nM; with human STEAP-1 [16] it was 4.7 nM; with human STEAP-1 [21], 1.5 nM. Moreover, the binding result with mouse STEAP-1 [20] is “no binding”; in [15], “binds”. Moreover, in the experiment with human STEAP-1 [16], the sites per cell was found to be 301000 sites per cell.

B7: 120 chimera (antibody, V domains shown)
VH: DVQVQESGPGLVKPSQSLSLTCTVTGYSITSDYAWNWIRQFPGNKLEWMGYISNSGSTSYNPSLKSRISITRDTSKNQFFLQLISVTTEDTATYYCARERNYDYDDYYYAMDYWGQGTTLTVSA
VL: DIVMSQSPSSLAVSVGEKVTMSCKSSQSLLYRSNQKNYLAWYQQKPGQSPKLLIYWASTRESGVPDRFTGSGSGTDFTLTISSVKAEDLAVYYCQQYYNYPRTFGGGTKVEIK
notes: If that entry holds a murine constant part, only its variable part applies here; also called chimera 120; chimeric 120 IgG
Consider B7, for which the Kd in the experiment with human STEAP-1 [19] stood at 9.9 nM; in the experiment with human STEAP-1 [16], 4.9 nM; with human STEAP-1 [21], 0.9 nM. Also, the binding result in the experiment with mouse STEAP-1 [22] was “no binding”; in experiment [15], “binds”. This molecule came in with a sites per cell with human STEAP-1 [16] of 253000 sites per cell.

The values above are taken from US20090280056A1 (Genentech, published 2009).
